Data set [1] deals with the molecule itself. As to the kind of experiment: crystal structure; PfMCMAAA with Mg/ADP, hanging drop, 50 mM sodium cacodylate pH 6.0, 50 mM magnesium acetate, 30% MPD, 5% glycerol; space group P1, 16 monomers in the asymmetric unit; 3.80 Å.
Data set [2] deals with the molecule itself. As to the kind of experiment: crystal structure; Sso-PfMCM with Mg/ADP, hanging drop, 100 mM HEPES pH 7.6, 350 mM MgCl2, 3% PEG 3350; space group P6_(3), hexamer on a crystallographic threefold axis; 2.70 Å.

B1: Pyrococcus furiosus MCM AAA+ ATPase domain, crystallized construct (aa 263-361/729-966) (domain or fragment, UniProt Q8U3I4 263-966, looked up)
chain: PEEEQIIKELAKRKDIVDAIVDSIAPAIYGYKEVKKGIALALFGGVSRKLPDGTRLRGDIHVLLVGDPGVAKSQILRYVANLAPRAIYTSGKSSSAAGLTAAAVRDEFTGGWVLEAGALVLADGGYALIDELDKMSDRDRSVIHEALEQQTISISKAGITATLNARTTVIAAANPKQGRFNRMKNPFEQIDLPPTLLSRFDLIFVLIDEPDDKIDSEVARHILRVRRGESEVVAPKIPHEILRKYIAYARKNIHPVISEEAMEEIEKYYVRMRKSVKKTKGEEEGIPPIPITARQLEALIRLSEAHARMRLSPIVTREDAREAIKLMEYTLKQIAMD
notes: PfMCM AAA+ domain, Pyrococcus furiosus MCM, aa 263-361/729-966 (intein aa 362-728 genetically removed); amplified from P. furiosus genomic DNA (ATCC); numbers are database (intein-containing) numbers; A different construct (aa 252-361/729-1049) was used for the unwinding experiments and is not this molecule; also called PfMCMAAA; PfMCM-AAA; not shown: His6, N-terminal, cleaved; SUMO, N-terminal, …
Usually stoichiometry N stands for the number of molecules, sites or subunits per partner or assembly. For B1, in data set [1], the “stoichiometry N” value was 16.

B2: Sso-PfMCM chimera (Sulfolobus solfataricus MCM N-terminal domain fused to Pyrococcus furiosus MCM AAA+ ATPase domain) (enzyme, UniProt Q9UXG1 1-269, looked up)
chain: MEIPSKQIDYRDVFIEFLTTFKGNNNQNKYIERINELVAYRKKSLIIEFSDVLSFNENLAYEIINNTKIILPILEGALYDHILQLDPTYQRDIEKVHVRIVGIPRVIELRKIRSTDIGKLITIDGILVKVTPVKERIYKATYKHIHPDCMQEFEWPEDEEMPEVLEMPTICPKCGKPGQFRLIPEKTKLIDWQKAVIQERPEEVPSGQLPRQLEIILEDDLVDSARPGDRVKVTGILDIKQDSPVKRGSRAVFDIYMKVSSIEVSQKVLQELEISPEEEQIIKELAKRKDIVDAIVDSIAPAIYGYKEVKKGIALALFGGVSRKLPDGTRLRGDIHVLLVGDPGVAKSQILRYVANLAPRAIYTSGKSSSAAGLTAAAVRDEFTGGWVLEAGALVLADGGYALIDELDKMSDRDRSVIHEALEQQTISISKAGITATLNARTTVIAAANPKQGRFNRMKNPFEQIDLPPTLLSRFDLIFVLIDEPDDKIDSEVARHILRVRRGESEVVAPKIPHEILRKYIAYARKNIHPVISEEAMEEIEKYYVRMRKSVKKTKGEEEGIPPIPITARQLEALIRLSEAHARMRLSPIVTREDAREAIKLMEYTLKQIAMD
notes: SsoMCM N-terminal domain (SsoMCMN), Sulfolobus solfataricus MCM, aa 1-269; amplified from S. solfataricus genomic DNA (ATCC); PfMCM AAA+ domain (PfMCMAAA), Pyrococcus furiosus MCM, aa 257-361/729-966 = aa 257-966 with its intein (aa 362-728) genetically removed; lacks the C-terminal helix-turn-helix domain (aa 967-1049); numbers are database (intein-containing) numbers; Crystallised with Mg/ADP; …
For B2, in data set [2], the “stoichiometry N” value amounted to 6.

(Values after article PMC4359371, “Analysis of the crystal structure of an active MCM hexamer” (eLife, 2014).)
